Tested on: MCF-7 cells

With COc1cc(N=Nc2ccc(C)cc2[N+](=O)[O-])c(C)cc1N=Nc1ccc(N(C)CCCC(=O)NCCCC[C@H](NC(=O)CNC(=O)[C@H](CC(C)C)NC(=O)[C@H](Cc2ccccc2)NC(=O)CNC(=O)c2ccc3c(c2)C(=O)OC32c3ccc(O)cc3Oc3cc(O)ccc32)C(=O)NCC(=O)N[C@@H](CCCNC(=N)N)C(=O)N[C@@H](CCCCN)C(=O)N[C@@H](CCCCN)C(=O)N[C@@H](CCCNC(=N)N)C(=O)N[C@@H](CCCNC(=N)N)C(=O)N[C@@H](CCC(N)=O)C(=O)N[C@@H](CCCNC(=N)N)C(=O)N[C@@H](CCCNC(=N)N)C(=O)N[C@@H](CCCNC(=N)N)C(=O)N2CCC[C@H]2C(=O)N2CCC[C@H]2C(=O)N[C@@H](CCC(N)=O)C(N)=O)cc1 [TFB] the “toxicity to MCF-7 cells (cell viability)” value was “little toxicity”.

— patent US20140113322A1, “SUPRAMOLECULAR NANOBEACON IMAGING AGENTS AS PROTEASE SENSORS” (priority 2012, published 2014)
